Source: patent US20260132182A1 (published 2026)
Starred links: 1 amine or outer side, 2 acyl side, 3 side chain; linkers in the order of their positions; H or OH if unused. Non-standard residues stand in square brackets, D forms with d. Groups on a side chain read outwards from the residue. *: point of attachment. Butyryl(4-SO2NHCO(CH2)16Tz) = O=C(CCCCCCCCCCCCCCCCc1nnn[nH]1)NS(=O)(=O)CCCC(=O)*; C20 diacid = O=C(O)CCCCCCCCCCCCCCCCCCC(=O)*; C18 diacid = O=C(O)CCCCCCCCCCCCCCCCC(=O)*; γGlu = O=C(O)[C@H](CCC(=O)[*:2])N[*:1]; Desaminohistidyl = O=C(CCc1c[nH]cn1)*; Trx = NC[C@H]1CC[C@H](C(=O)O)CC1; AEEA = NCCOCCOCC(=O)O; Aib = CC(C)(N)C(=O)O

T1: human amylin-3 (a) receptor (human, UniProt P30988 25-474; O60896 24-148)
T1 sequence (looked up) 1: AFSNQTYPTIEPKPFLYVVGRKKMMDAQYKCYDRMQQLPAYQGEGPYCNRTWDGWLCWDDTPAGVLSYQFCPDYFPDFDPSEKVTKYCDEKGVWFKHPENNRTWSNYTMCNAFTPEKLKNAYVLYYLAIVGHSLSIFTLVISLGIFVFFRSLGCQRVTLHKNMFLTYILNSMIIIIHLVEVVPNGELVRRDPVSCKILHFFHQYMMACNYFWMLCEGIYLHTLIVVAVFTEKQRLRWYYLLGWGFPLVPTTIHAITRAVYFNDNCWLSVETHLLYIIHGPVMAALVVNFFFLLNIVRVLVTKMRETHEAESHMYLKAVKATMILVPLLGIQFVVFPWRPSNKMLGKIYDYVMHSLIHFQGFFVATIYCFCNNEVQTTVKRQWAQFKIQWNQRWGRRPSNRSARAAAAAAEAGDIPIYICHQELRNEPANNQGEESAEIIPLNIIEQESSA
T1 sequence (looked up) 2: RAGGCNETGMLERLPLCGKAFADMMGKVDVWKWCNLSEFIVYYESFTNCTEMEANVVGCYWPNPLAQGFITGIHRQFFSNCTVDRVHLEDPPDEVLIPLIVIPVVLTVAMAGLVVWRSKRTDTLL

B1: Compound 0636 (peptide)
peptide: H[Aib]EGTFTSDVSSYLEEQAARK([AEEA-AEEA-γGlu-γGlu-γGlu-C20 diacid])FIEWLVRGRQEAASELSTAALGRLSAELHQLATLPRTETGSGSP-NH2
B2: Compound 0106 (peptide)
peptide: H[Aib]EGTFTSDVSSYLEEQAARK([Ado-Ado-γGlu-C18 diacid])FIEWLVRGK([Ado-Ado-γGlu-C18 diacid])GEGQEPGGASELSTAALGRLSAELHELATLPRTETGSGSP-NH2
B3: Compound 0125 (peptide)
peptide: H[Aib]EGTFTSDVSSYLEEQAARK(Butyryl(4-SO2NHCO(CH2)16Tz))FIAWLVRGRGEASELSTAALGRLSAELHELATLPRTETGSGSP-NH2
B4: Compound 0007 (peptide)
peptide: H[Aib]EGTFTSDVSSYLEGQAAK([AEEA-AEEA-γGlu-C18 diacid])EFIAWLVRGRGGGEASELSTAALGRLSAELHELATLPRTETGSGSP-NH2
B5: Compound 0127 (peptide)
peptide: H[Aib]EGTFTSDVSSYLEEQAARK([AEEA-AEEA-γGlu-C18 diacid])FIAWLVRGK([AEEA-AEEA-γGlu-C18 diacid])GGEASELSTAALGRLSAELHELATLPRTETGSGSP-NH2
B6: Compound 0128 (peptide)
peptide: H[Aib]EGTFTSDVSSYLEEQAARK([AEEA-AEEA-γGlu-C18 diacid])FIEWLVRGK([AEEA-AEEA-γGlu-C18 diacid])GGEASELSTAALGRLSAELHELATLPRTETGSGSP-NH2
B7: Compound 0129 (peptide)
peptide: H[Aib]EGTFTSDVSSYLEEQAARK([AEEA-AEEA-γGlu-C18 diacid])FIEWLVRGRK([AEEA-AEEA-γGlu-C18 diacid])GGEASELSTAALGRLSAELHELATLPRTETGSGSP-NH2
B8: Compound 0026 (peptide)
peptide: H[Aib]EGTFTSDVSSYLEGQAAK([AEEA-AEEA-γGlu-C18 diacid])EFIAWLVRGRGQEPGQAPEASELSTAALGRLSAELHELATLPRTETGSGSP-NH2
B9: Compound 0035 (peptide)
peptide: [Desaminohistidyl]AEGTFTSDVSSYLEEQAAREFIAWLVRGRK([AEEA-AEEA-γGlu-Trx-C20 diacid])EASELSTAALGRLSAELHELATLPRTETGSGSP-NH2
B10: Compound 0132 (peptide)
peptide: H[Aib]EGTFTSDVSSYLEEQAAREFIAWLVRGK([AEEA-AEEA-γGlu-C18 diacid])GGEASELSTAALGRLSAELHELATLPRTETGSGSP-NH2
B11: Compound 0124 (peptide)
peptide: [Desaminohistidyl][Aib]EGTFTSDVSSYLEEQAAREFIAWLVRGRK(Butyryl(4-SO2NHCO(CH2)16Tz))EASELSTAALGRLSAELHELATLPRTETGSGSP-NH2
B12: Compound 0131 (peptide)
peptide: H[Aib]EGTFTSDVSSYLEEQAARK([γGlu-C18 diacid])FIAWLVRGRK([γGlu-C18 diacid])EASELSTAALGRLSAELHELATLPRTETGSGSP-NH2

target: T1, human amylin-3 (a) receptor; test: cell-based or functional assay

Binder	Human AmyR3 potency [EC50 (pM)] [pM]
B1	8.5
B2	28.4
B3	12.2
B4	9.4
B5	63.9
B6	110
B7	23.5
B8	14
B9	16
B10	34.9
B11	24.4
B12	14.5

target: human GLP-1 receptor (human, UniProt P43220 24-463); test: cell-based or functional assay

Binder	Human GLP-1R potency [EC50 (pM)] [pM]
B3	8
B4	13.3
B5	7.1
B6	9.7
B7	1.2
B8	8.8
B9	16.7
B10	3
B11	27.9
B12	16.1
